In IntAct's records for PubMed 16328881:

B1: Minichromosome maintenance protein 10 (Saccharomyces cerevisiae), P32354 (parent)
chain: MNDPREILAVDPYNNITSDEEDEQAIARELEFMERKRQALVERLKRKQEFKKPQDPNFEAIEVPQSPTKNRVKVGSHNATQQGTKFEGSNINEVRLSQLQQQPKPPASTTTYFMEKFQNAKKNEDKQIAKFESMMNARVHTFSTDEKKYVPIITNELESFSNLWVKKRYIPEDDLKRALHEIKILRLGKLFAKIRPPKFQEPEYANWATVGLISHKSDIKFTSSEKPVKFFMFTITDFQHTLDVYIFGKKGVERYYNLRLGDVIAILNPEVLPWRPSGRGNFIKSFNLRISHDFKCILEIGSSRDLGWCPIVNKKTHKKCGSPINISLHKCCDYHREVQFRGTSAKRIELNGGYALGAPTKVDSQPSLYKAKGENGFNIIKGTRKRLSEEEERLKKSSHNFTNSNSAKAFFDEKFQNPDMLANLDNKRRKIIETKKSTALSRELGKIMRRRESSGLEDKSVGERQKMKRTTESALQTGLIQRLGFDPTHGKISQVLKSSVSGSEPKNNLLGKKKTVINDLLHYKKEKVILAPSKNEWFKKRSHREEVWQKHFGSKETKETSDGSASDLEII

Variants of: B1
Settings: with sir3_yeast SIR3, P06701
sir3_yeast SIR3, P06701, sequence (P06701 whole entry): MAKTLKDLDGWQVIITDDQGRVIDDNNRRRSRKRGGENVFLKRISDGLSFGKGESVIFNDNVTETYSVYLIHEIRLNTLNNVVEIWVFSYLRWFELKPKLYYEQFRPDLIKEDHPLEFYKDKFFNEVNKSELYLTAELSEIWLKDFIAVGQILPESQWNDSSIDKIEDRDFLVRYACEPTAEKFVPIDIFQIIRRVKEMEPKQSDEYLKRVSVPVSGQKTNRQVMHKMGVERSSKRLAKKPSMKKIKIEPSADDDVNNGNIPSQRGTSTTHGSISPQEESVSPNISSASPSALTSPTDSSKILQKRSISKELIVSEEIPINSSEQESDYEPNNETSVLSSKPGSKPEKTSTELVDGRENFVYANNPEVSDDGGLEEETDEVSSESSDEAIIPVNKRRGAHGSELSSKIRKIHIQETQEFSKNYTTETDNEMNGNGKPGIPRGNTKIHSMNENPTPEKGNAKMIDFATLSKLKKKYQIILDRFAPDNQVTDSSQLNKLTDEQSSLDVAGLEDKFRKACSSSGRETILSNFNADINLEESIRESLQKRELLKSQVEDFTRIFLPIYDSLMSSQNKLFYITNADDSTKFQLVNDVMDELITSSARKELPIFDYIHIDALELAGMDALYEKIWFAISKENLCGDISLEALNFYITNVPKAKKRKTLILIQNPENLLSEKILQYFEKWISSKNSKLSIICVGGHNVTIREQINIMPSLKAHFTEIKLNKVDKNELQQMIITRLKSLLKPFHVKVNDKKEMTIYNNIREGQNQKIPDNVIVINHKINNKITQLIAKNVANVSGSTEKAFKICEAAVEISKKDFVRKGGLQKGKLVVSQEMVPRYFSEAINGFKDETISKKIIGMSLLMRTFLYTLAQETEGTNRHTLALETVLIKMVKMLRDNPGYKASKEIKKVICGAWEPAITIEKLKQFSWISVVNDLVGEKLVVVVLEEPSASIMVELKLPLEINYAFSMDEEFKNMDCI

| Variant | effect of a mutation on the interaction |
| --- | --- |
| MNDPREILAVDPYNNITSDEEDEQAIARELEFMERKRQALVERLKRKQEFKKPQDPNFEAIEVPQSPTKNRVKVGSHNATQQGTKFEGSNINEVRLSQLQQQPKPPASTTTYFMEKFQNAKKNEDKQIAKFESMMNARVHTFSTDEKKYVPIITNELESFSNLWVKKRYIPEDDLKRALHEIKILRLGKLFAKIRPPKFQEPEYANWATVGLISHKSDIKFTSSEKPVKFFMFTITDFQHTLDVYIFGKKGVERYYNLRLGDVIAILNPEVLPWRPSGRGNFIKSFNLRISHDFKCILEIGSSRDLGWCPIVNKKTHKKYGSPINISLHKCCDYHREVQFRGTSAKRIELNGGYALGAPTKVDSQPSLYKAKGENGFNIIKGTRKRLSEEEERLKKSSHNFTNSNSAKAFFDEKFQNPDMLANLDNKRRKIIETKKSTALSRELGKIMRRRESSGLEDKSVGERQKMKRTTESALQTGLIQRLGFDPTHGKISQVLKSSVSGSEPKNNLLGKKKTVINDLLHYKKEKVILAPSKNEWFKKRSHREEVWQKHFGSKETKETSDGSASDLEII [C320Y] | disrupting interaction strength |
| MNDPREILAVDPYNNITSDEEDEQAIARELEFMERKRQALVERLKRKQEFKKPQDPNFEAIEVPQSPTKNRVKVGSHNATQQGTKFEGSNINEVRLSQLQQQPKPPASTTTYFMEKFQNAKKNEDKQIAKFESMMNARVHTFSTDEKKYVPIITNELESFSNLWVKKRYIPEDDLKRALHEIKILRLGKLFAKIRPPKFQEPEYANWATVGLISHKSDIKFTSSEKPVKFFMFTITDFQHTLDVYIFGKKGVERYYNLRLGDVIAILNLEVLPWRPSGRGNFIKSFNLRISHDFKCILEIGSSRDLGWCPIVNKKTHKKCGSPINISLHKCCDYHREVQFRGTSAKRIELNGGYALGAPTKVDSQPSLYKAKGENGFNIIKGTRKRLSEEEERLKKSSHNFTNSNSAKAFFDEKFQNPDMLANLDNKRRKIIETKKSTALSRELGKIMRRRESSGLEDKSVGERQKMKRTTESALQTGLIQRLGFDPTHGKISQVLKSSVSGSEPKNNLLGKKKTVINDLLHYKKEKVILAPSKNEWFKKRSHREEVWQKHFGSKETKETSDGSASDLEII [P269L] | disrupting interaction strength |

Variants of: B1
Settings: with sir2_yeast SIR2, P06700
sir2_yeast SIR2, P06700, sequence (P06700 whole entry): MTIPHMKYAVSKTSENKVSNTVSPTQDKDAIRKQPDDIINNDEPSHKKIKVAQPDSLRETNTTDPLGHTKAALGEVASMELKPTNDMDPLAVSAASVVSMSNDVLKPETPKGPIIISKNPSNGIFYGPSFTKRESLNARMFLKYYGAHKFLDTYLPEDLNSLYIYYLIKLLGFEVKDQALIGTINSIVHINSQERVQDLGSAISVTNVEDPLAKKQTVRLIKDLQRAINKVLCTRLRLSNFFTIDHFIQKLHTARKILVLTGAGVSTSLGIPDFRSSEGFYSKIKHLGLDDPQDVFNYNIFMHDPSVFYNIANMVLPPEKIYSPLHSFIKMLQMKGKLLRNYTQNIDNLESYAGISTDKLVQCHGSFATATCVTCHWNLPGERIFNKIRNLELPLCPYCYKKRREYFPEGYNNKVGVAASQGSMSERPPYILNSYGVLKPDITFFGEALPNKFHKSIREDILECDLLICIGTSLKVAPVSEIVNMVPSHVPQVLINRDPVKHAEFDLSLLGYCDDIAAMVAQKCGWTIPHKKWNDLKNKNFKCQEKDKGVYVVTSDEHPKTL

| Variant | effect of a mutation on the interaction |
| --- | --- |
| MNDPREILAVDPYNNITSDEEDEQAIARELEFMERKRQALVERLKRKQEFKKPQDPNFEAIEVPQSPTKNRVKVGSHNATQQGTKFEGSNINEVRLSQLQQQPKPPASTTTYFMEKFQNAKKNEDKQIAKFESMMNARVHTFSTDEKKYVPIITNELESFSNLWVKKRYIPEDDLKRALHEIKILRLGKLFAKIRPPKFQEPEYANWATVGLISHKSDIKFTSSEKPVKFFMFTITDFQHTLDVYIFGKKGVERYYNLRLGDVIAILNLEVLPWRPSGRGNFIKSFNLRISHDFKCILEIGSSRDLGWCPIVNKKTHKKCGSPINISLHKCCDYHREVQFRGTSAKRIELNGGYALGAPTKVDSQPSLYKAKGENGFNIIKGTRKRLSEEEERLKKSSHNFTNSNSAKAFFDEKFQNPDMLANLDNKRRKIIETKKSTALSRELGKIMRRRESSGLEDKSVGERQKMKRTTESALQTGLIQRLGFDPTHGKISQVLKSSVSGSEPKNNLLGKKKTVINDLLHYKKEKVILAPSKNEWFKKRSHREEVWQKHFGSKETKETSDGSASDLEII [P269L] | disrupting interaction strength |
